Results published in patent US20260049134A1 (UNIVERSITY OF FLORIDA RESEARCH FOUNDATION, published 2026).

T1: DCC
T1 construct: also called DCC-His (R&D Systems)
T1 chain: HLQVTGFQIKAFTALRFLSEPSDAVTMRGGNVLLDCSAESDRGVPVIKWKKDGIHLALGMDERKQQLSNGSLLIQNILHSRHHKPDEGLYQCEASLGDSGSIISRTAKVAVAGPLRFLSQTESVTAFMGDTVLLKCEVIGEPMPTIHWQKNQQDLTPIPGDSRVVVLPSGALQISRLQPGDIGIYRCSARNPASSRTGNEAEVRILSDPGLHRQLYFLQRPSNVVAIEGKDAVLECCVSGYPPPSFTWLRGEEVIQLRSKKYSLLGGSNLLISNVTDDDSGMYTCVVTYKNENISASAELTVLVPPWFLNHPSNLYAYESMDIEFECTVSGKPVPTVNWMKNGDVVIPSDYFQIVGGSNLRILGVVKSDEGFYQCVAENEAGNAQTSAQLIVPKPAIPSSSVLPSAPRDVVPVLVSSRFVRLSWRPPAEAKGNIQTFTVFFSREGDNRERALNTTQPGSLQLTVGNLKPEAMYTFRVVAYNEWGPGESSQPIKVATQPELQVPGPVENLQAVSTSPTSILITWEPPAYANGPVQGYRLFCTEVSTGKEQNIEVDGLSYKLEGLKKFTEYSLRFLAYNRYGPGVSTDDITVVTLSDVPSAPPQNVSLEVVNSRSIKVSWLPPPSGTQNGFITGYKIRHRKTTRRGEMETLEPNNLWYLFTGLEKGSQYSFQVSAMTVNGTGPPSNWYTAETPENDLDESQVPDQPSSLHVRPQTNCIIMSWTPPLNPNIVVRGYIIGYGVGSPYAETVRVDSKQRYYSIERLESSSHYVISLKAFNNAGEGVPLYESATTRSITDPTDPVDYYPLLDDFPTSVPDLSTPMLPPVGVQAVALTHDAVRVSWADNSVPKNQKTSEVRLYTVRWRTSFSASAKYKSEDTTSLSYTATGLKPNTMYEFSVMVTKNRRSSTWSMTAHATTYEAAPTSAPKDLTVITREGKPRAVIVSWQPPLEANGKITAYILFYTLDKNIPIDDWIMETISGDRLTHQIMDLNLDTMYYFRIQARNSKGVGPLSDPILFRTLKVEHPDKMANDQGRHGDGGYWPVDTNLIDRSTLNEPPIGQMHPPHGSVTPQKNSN

T2: IL13RA1
T2 construct: also called IL13RA1-Fc-His (R&D Systems)
T2 chain: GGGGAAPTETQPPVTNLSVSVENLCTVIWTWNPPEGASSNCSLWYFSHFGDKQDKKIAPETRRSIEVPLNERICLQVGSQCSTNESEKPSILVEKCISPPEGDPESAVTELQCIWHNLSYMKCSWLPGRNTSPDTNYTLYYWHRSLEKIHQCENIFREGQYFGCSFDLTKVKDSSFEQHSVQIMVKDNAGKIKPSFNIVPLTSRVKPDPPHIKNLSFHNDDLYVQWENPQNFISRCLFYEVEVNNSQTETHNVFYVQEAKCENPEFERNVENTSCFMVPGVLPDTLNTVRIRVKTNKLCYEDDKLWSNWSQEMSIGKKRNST

T3: SELL
T3 construct: also called SELL-Fc-His (R&D Systems); L-Selectin
T3 chain: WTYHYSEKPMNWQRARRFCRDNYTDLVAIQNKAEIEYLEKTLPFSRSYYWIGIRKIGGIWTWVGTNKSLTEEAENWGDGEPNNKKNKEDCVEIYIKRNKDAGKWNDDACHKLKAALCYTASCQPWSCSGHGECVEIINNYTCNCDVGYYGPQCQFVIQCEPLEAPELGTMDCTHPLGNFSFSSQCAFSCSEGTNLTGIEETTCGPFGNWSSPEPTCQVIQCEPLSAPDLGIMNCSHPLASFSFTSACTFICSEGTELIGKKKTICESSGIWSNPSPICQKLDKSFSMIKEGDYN

T4: SLAMF7
T4 construct: also called SLAMF7-StrepTag; not shown: StrepTag and any linker
T4 chain: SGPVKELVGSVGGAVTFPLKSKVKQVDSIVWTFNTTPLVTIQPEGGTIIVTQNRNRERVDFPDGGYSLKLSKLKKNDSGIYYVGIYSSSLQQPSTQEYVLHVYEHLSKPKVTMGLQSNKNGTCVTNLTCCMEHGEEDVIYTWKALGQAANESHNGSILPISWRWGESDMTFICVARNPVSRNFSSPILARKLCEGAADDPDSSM

T5: ANXA1
T5 construct: also called ANXA1-His (R&D Systems); not shown: His tag
T5 chain: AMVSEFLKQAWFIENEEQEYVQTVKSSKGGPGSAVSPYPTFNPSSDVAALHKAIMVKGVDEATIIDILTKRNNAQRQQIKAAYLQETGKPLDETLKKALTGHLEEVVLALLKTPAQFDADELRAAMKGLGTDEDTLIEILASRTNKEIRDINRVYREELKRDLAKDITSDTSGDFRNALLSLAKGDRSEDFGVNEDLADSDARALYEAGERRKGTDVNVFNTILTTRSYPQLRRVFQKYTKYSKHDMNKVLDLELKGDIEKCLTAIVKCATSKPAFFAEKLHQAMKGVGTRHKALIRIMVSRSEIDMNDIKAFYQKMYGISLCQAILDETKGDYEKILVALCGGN


What was measured:
Experiment in all cases: ELISA on coated protein
DCC = biological target: T1, DCC
Experimental: (§1) Recombinant purified ECDs (50-150 ng) of each putative target protein were coated, incubated with 150 ng of the indicated primary antibody, and binding was detected using a peroxidase-conjugated anti-human Fab secondary antibody. Heatmap represents averages of technical triplicates. (8B) Target validation via siRNA knockdown. H929 cells were transfected with siRNA pools targeting the putative antibody targets ICAM1, CADM1, and PTPRG. Cells were then subjected to cognate IgG binding analysis via flow cytometry. (NT, non-targeting siRNA).
(§2) ELISA ELISA was conducted as described previously. Briefly, 50-150 ng of antigen was coated overnight in half-area 96-well plates at 4° C., blocked with 3% BSA at 37° C. for 1 h, and 150 ng of chimeric rabbit/human IgG1 was added, incubating for 2 h at 37° C. […] After incubating at 37° C. for 15 min-1 h (depending on intensity of controls), data were acquired using a SpectraMax M5 plate reader (Molecular Devices).

IL13RA1 = biological target: T2, IL13RA1
Experimental: as §1, §2

SELL = biological target: T3, SELL
Experimental: as §1, §2

PTP4A3 = biological target: T6, PTP4A3
T6 construct: also called His-PTP4A3 (R&D Systems)
T6 sequence (chain, as listed by the source limits assumed): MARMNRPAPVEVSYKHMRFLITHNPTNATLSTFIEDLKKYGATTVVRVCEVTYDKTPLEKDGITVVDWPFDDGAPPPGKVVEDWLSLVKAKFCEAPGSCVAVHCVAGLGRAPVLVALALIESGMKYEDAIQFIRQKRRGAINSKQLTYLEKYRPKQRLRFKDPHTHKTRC
Experimental: as §1, §2

SLAMF7 = biological target: T4, SLAMF7
Experimental: as §1, §2

ANXA1 = biological target: T5, ANXA1
Experimental: as §1, §2

ICAM1-Fc (R&D Systems) = biological target: T7, ICAM1-Fc (R&D Systems) (human, UniProt P05362 28-480)
T7 construct: Bought; also called ICAM-1/CD54; not shown: Fc of the bought fusion protein
T7 sequence (P05362 28-480): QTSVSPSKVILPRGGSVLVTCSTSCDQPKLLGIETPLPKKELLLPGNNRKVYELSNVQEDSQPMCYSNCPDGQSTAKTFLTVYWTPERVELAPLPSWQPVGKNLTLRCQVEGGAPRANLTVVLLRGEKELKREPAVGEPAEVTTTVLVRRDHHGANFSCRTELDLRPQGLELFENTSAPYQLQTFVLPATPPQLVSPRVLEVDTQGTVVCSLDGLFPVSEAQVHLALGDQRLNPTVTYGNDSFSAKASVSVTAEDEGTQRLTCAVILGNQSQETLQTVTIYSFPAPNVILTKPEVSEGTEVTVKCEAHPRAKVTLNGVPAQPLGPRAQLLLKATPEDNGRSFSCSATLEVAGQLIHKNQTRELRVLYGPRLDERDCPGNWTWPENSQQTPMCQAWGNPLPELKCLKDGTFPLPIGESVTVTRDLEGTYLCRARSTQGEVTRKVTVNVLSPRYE
Experimental: as §1, §2

| Binder | binding result (DCC) | binding result (IL13RA1) | binding result (SELL) | binding result (PTP4A3) | binding result (SLAMF7) | binding result (ANXA1) | binding result (ICAM1-Fc (R&D Systems)) |
| --- | --- | --- | --- | --- | --- | --- | --- |
| HW-42 chimeric rabbit-human IgG1 LA/LA/PG (antibody, V domains shown, Fc-silenced (L234A/L235A/P329G) IgG1, lambda; Alexa Fluor 647-labeled in single-step flow cytometry; Cluster C-1) VH: QSVKESEGGLFKPADTLTLTCTVSGFSLSSNEISWVRQAPGEGLEYIGIIDTGGRAYYAVWARSRSTITRNTNLNTVTLKMTSLTAADTATYFCARGGVDTEWYAFSSWGPGTLVTVPS VL: SFVLTQPASVQVNLGQTVSLTCTADTLSRRYASWYQQKPGQAPVLLIFRDTSRPSGVPDRFSGSSSGDTATLTISGAQAGDEADYYCATSDGSGSNYQYVFGGGTQLTVTG | no binding (tested: 150 ng IgG1 per well) | no binding (tested: 150 ng IgG1 per well) | no binding (tested: 150 ng IgG1 per well) | no binding (tested: 150 ng IgG1 per well) | no binding (tested: 150 ng IgG1 per well) | no binding (tested: 150 ng IgG1 per well) | – |
| HW-1 chimeric rabbit-human IgG1 LA/LA/PG (antibody, V domains shown, Fc-silenced (L234A/L235A/P329G) IgG1, lambda; Alexa Fluor 647-labeled in single-step flow cytometry; Prototype of cluster C-1) VH: QSLEESGGGLFKPTDTLTLTCTASGFSLGSSYAISWVRQAPGKELEWIGTIDSGRAYYARWAKSRSTITRNTNENTVTLKMTSLTAADTATYFCARDLIPTYSQDIWGPGTLVTISS VL: SFVLTQPASVQVNLGQTVSLTCTADTLSRRYASWYQQKPGQAPVLLIYRDTSRPSGVPDRFSGSSSGNTATLTISGAQAGDEADYYCATSDGSGNSYQYVFGGGTQLTVTS | no binding (tested: 150 ng IgG1 per well) | no binding (tested: 150 ng IgG1 per well) | no binding (tested: 150 ng IgG1 per well) | no binding (tested: 150 ng IgG1 per well) | no binding (tested: 150 ng IgG1 per well) | no binding (tested: 150 ng IgG1 per well) | no binding (tested: 150 ng IgG1 per well) |
| HW-17 chimeric rabbit-human IgG1 LA/LA/PG (antibody, V domains shown, Fc-silenced (L234A/L235A/P329G) IgG1, lambda; Alexa Fluor 647-labeled in single-step flow cytometry; Cluster C-1) VH: QSLGESRGRLVTPDETLTLTCTVSGIDLSSNAMSWVRQAPGEGLEWIGTINTGGRAYYASWAKGRFTISRTSTTVDLKMTSLTTEDTATYFCARERYSDGRAYDIWGPGTLVTISS VL: SFVLTQPASVQVNLGQTVSLTCTADTLSRRYASWYQQKPGQAPVLLIYTDSNRPSGIPDRFSGSSSGNTATLTISGAQAGDEADYYCATDDGSGSIYQYVFGGGTQLTVTG | no binding (tested: 150 ng IgG1 per well) | no binding (tested: 150 ng IgG1 per well) | no binding (tested: 150 ng IgG1 per well) | no binding (tested: 150 ng IgG1 per well) | no binding (tested: 150 ng IgG1 per well) | no binding (tested: 150 ng IgG1 per well) | no binding (tested: 150 ng IgG1 per well) |
| HW-70 chimeric rabbit-human IgG1 LA/LA/PG (antibody, V domains shown, Fc-silenced (L234A/L235A/P329G) IgG1, lambda; Alexa Fluor 647-labeled in single-step flow cytometry; Cluster C-1) VH: QSLEESGGRLVTPGTPLTLTCTVSGFSLSSNAMSWVRQAPGKGLEWIGTIDGYGYTYYASWAKGRFTVSKTSTTVDLKITSPTTEDTATYFCAREIYLGSNFWGPGTLVTISS VL: SFVLTQPASVQVNLGQTVSLTCTADTLSRRYASWYQQKPGQAPVLLIYRDTSRPSGVPDRFSGSSSGNTATLTISGAQAGDEADYYCATADGSGSSYQFVFGGGTQLTVTG | no binding (tested: 150 ng IgG1 per well) | no binding (tested: 150 ng IgG1 per well) | no binding (tested: 150 ng IgG1 per well) | no binding (tested: 150 ng IgG1 per well) | no binding (tested: 150 ng IgG1 per well) | no binding (tested: 150 ng IgG1 per well) | – |
| HW-113 chimeric rabbit-human IgG1 LA/LA/PG (antibody, V domains shown, Fc-silenced (L234A/L235A/P329G) IgG1, lambda; Alexa Fluor 647-labeled in single-step flow cytometry) VH: QKQLVESGGGLVQPGGSLTLTCTVSGFSLNKYYMGWFRQAPGKGLEWIGVISRSGDTYYSSWAKGRFTISKASTTVDLRITSPTTEDTATYFCARDASSPGFHGDRLDLWGQGTLVTVSS VL: SFVLTQPASVQVNLGQTVSLTCTADTLSRSYASWYQQKPGQAPVLLIYRDTSRPSGVPDRFSGSSSGNTATLTISGAQAGDEADYYCATSDGIGSNYLWVFGGGTQLTVTG | no binding (tested: 150 ng IgG1 per well) | no binding (tested: 150 ng IgG1 per well) | no binding (tested: 150 ng IgG1 per well) | no binding (tested: 150 ng IgG1 per well) | no binding (tested: 150 ng IgG1 per well) | no binding (tested: 150 ng IgG1 per well) | – |
| HW-25 chimeric rabbit-human IgG1 LA/LA/PG (antibody, V domains shown, Fc-silenced (L234A/L235A/P329G) IgG1, lambda; Alexa Fluor 647-labeled in single-step flow cytometry; Cluster C-1) VH: QSLEESGGRLVTPGTPLTLTCTVSGFSLSSYAMGWVRQAPGKGLEWIGIIDSRGSTYYATWAKGRFTISKTSTTVDLKITSPTTEDTATYFCAREDSYYYDSFNLWGPGTLVTVSS VL: SFVLTQPASVQVNLGQTVSLTCTADTLSRRYASWYQQKPGQAPVLLIYRDTSRPSGVPDRFSGSSSGNTATLTISGAQAGDEADYYCATSDGSGSSYQCVFGGGTQLTVTG | no binding (tested: 150 ng IgG1 per well) | no binding (tested: 150 ng IgG1 per well) | no binding (tested: 150 ng IgG1 per well) | no binding (tested: 150 ng IgG1 per well) | no binding (tested: 150 ng IgG1 per well) | no binding (tested: 150 ng IgG1 per well) | – |
